From patent US8389575B2, “Control of enzymatic peracid generation” (E.I. du Pont de Nemours and Company, priority 2008, dated 2013)

Legend:
[1] = Peracetic acid production by Thermotoga maritima MSB8 perhydrolase, control by bicarbonate buffer concentration; assay type: biochemical; settings: 100 mM triacetin
Procedure: A cell extract of a transformant expressing perhydrolase from Thermotoga maritima MSB8 (KLP18/pSW207) was prepared by passing a suspension of cell paste (20 wt % wet cell weight) in 0.05 M potassium phosphate buffer (pH 7.0) containing dithiothreitol (1 mM) twice through a French press having a working pressure of 16,000 psi (˜110 MPa). The crude extract was then centrifuged at 20,000×g to remove cellular debris, producing a clarified cell extract that was assayed for total soluble protein (Bicinchoninic Acid Kit for Protein Determination, Sigma Aldrich catalog #BCA1-KT). The clarified extract was heated for 20 min at 75° C., followed immediately by cooling in an ice/water bath. The resulting mixture was centrifuged to remove precipitated protein, and the supernatant collected and assayed for total soluble protein as before. […] The supernatant was frozen in dry ice and stored at −80° C.
Reactions (2 mL total volume) containing triacetin, hydrogen peroxide and heat-treated, centrifuged cell extract supernatant (prepared as described above) were run at 25° C. using sodium bicarbonate buffer concentrations listed in Tables 9 and 10. A control reaction for each reaction condition was run to determine the concentration of peracetic acid produced by chemical perhydrolysis of triacetin by hydrogen peroxide in the absence of added extract protein. Determination of the concentration of peracetic acid in the reaction mixtures was performed according to the method described by Karst et al., supra. The peracetic acid concentrations produced in 1 min, 5 min and 30 min using either 250 mM or 100 mM hydrogen peroxide are listed in Table 9 and Table 10.

[2] = Peracetic acid production and reaction pH over time, Thermotoga maritima MSB8 perhydrolase, selection of buffer, reactant and perhydrolase concentrations; assay type: biochemical; settings: triacetin 100 mM
Procedure: Reactions (10 mL total volume) containing triacetin (100 mM), hydrogen peroxide (100 mM or 250 mM) and heat-treated, centrifuged cell extract supernatant (35 to 100 μg total heat-treated extract protein/mL, prepared as described in Example 13) prepared from an E. coli transformant expressing perhydrolase from Thermotoga maritima MSB8 (KLP18/pSW207) in sodium citrate (50 mM, pH 6.5) buffer, or in sodium bicarbonate buffer (1 mM to 5 mM, initial pH as indicated in Table 12), or in water without added buffer were run at 25° C. A control reaction for each reaction condition was run to determine the concentration of peracetic acid produced by chemical perhydrolysis of triacetin by hydrogen peroxide in the absence of added extract protein. Determination of the concentration of peracetic acid in the reaction mixtures was performed according to the method described by Karst et al., supra. The peracetic acid concentration produced at predetermined reaction times is listed in Table 11, and the corresponding reaction pH at each reaction time is listed in Table 12.

[3] = bicarbonate, 1 mM, H2O2 100 mM, total protein 75 μg/mL
[4] = bicarbonate, 1 mM, H2O2 100 mM, total protein 100 μg/mL
[5] = bicarbonate, 1 mM, H2O2 250 mM, total protein 35 μg/mL
[6] = bicarbonate, 1 mM, H2O2 250 mM, total protein 50 μg/mL
[7] = bicarbonate, 2.5 mM, H2O2 100 mM, total protein 50 μg/mL
[8] = bicarbonate, 5 mM, H2O2 100 mM, total protein 50 μg/mL
[9] = citrate, 50 mM, H2O2 100 mM, total protein 50 μg/mL
[10] = water (no buffer), H2O2 250 mM, total protein 75 μg/mL
[11] = water (no buffer), H2O2 250 mM, total protein 100 μg/mL

PAA (ppm), 1 min ([1]; NaHCO3 0 mM, initial pH 5.0, 1 min, 100 mM H2O2, 50 μg/mL heated extract total protein): 125 ppm
PAA (ppm), 1 min ([1]; NaHCO3 0 mM, initial pH 5.0, 1 min, 250 mM H2O2, 50 μg/mL heated extract total protein): 233 ppm
PAA (ppm), 5 min ([1]; NaHCO3 0 mM, initial pH 5.0, 5 min, 100 mM H2O2, 50 μg/mL heated extract total protein): 121 ppm
PAA (ppm), 5 min ([1]; NaHCO3 0 mM, initial pH 5.0, 5 min, 250 mM H2O2, 50 μg/mL heated extract total protein): 290 ppm
PAA (ppm), 30 min ([1]; NaHCO3 0 mM, initial pH 5.0, 30 min, 100 mM H2O2, 50 μg/mL heated extract total protein): 105 ppm
PAA (ppm), 30 min ([1]; NaHCO3 0 mM, initial pH 5.0, 30 min, 250 mM H2O2, 50 μg/mL heated extract total protein): 289 ppm
PAA (ppm), 1 min ([1]; NaHCO3 1.0 mM, initial pH 6.0, 1 min, 100 mM H2O2, 50 μg/mL heated extract total protein): 238 ppm
PAA (ppm), 1 min ([1]; NaHCO3 1.0 mM, initial pH 6.0, 1 min, 250 mM H2O2, 50 μg/mL heated extract total protein): 690 ppm
PAA (ppm), 5 min ([1]; NaHCO3 1.0 mM, initial pH 6.0, 5 min, 100 mM H2O2, 50 μg/mL heated extract total protein): 388 ppm
PAA (ppm), 5 min ([1]; NaHCO3 1.0 mM, initial pH 6.0, 5 min, 250 mM H2O2, 50 μg/mL heated extract total protein): 980 ppm
PAA (ppm), 30 min ([1]; NaHCO3 1.0 mM, initial pH 6.0, 30 min, 100 mM H2O2, 50 μg/mL heated extract total protein): 361 ppm
PAA (ppm), 30 min ([1]; NaHCO3 1.0 mM, initial pH 6.0, 30 min, 250 mM H2O2, 50 μg/mL heated extract total protein): 981 ppm
PAA (ppm), 1 min ([1]; NaHCO3 2.5 mM, initial pH 6.5, 1 min, 100 mM H2O2, 50 μg/mL heated extract total protein): 319 ppm
PAA (ppm), 1 min ([1]; NaHCO3 2.5 mM, initial pH 6.5, 1 min, 250 mM H2O2, 50 μg/mL heated extract total protein): 817 ppm
PAA (ppm), 5 min ([1]; NaHCO3 2.5 mM, initial pH 6.5, 5 min, 100 mM H2O2, 50 μg/mL heated extract total protein): 755 ppm
PAA (ppm), 5 min ([1]; NaHCO3 2.5 mM, initial pH 6.5, 5 min, 250 mM H2O2, 50 μg/mL heated extract total protein): 1758 ppm
PAA (ppm), 30 min ([1]; NaHCO3 2.5 mM, initial pH 6.5, 30 min, 100 mM H2O2, 50 μg/mL heated extract total protein): 710 ppm
PAA (ppm), 30 min ([1]; NaHCO3 2.5 mM, initial pH 6.5, 30 min, 250 mM H2O2, 50 μg/mL heated extract total protein): 1748 ppm
PAA (ppm), 1 min ([1]; NaHCO3 5.0 mM, initial pH 6.5, 1 min, 100 mM H2O2, 50 μg/mL heated extract total protein): 330 ppm
PAA (ppm), 1 min ([1]; NaHCO3 5.0 mM, initial pH 6.5, 1 min, 250 mM H2O2, 50 μg/mL heated extract total protein): 735 ppm
PAA (ppm), 5 min ([1]; NaHCO3 5.0 mM, initial pH 6.5, 5 min, 100 mM H2O2, 50 μg/mL heated extract total protein): 972 ppm
PAA (ppm), 5 min ([1]; NaHCO3 5.0 mM, initial pH 6.5, 5 min, 250 mM H2O2, 50 μg/mL heated extract total protein): 1825 ppm
PAA (ppm), 30 min ([1]; NaHCO3 5.0 mM, initial pH 6.5, 30 min, 100 mM H2O2, 50 μg/mL heated extract total protein): 1323 ppm
PAA (ppm), 30 min ([1]; NaHCO3 5.0 mM, initial pH 6.5, 30 min, 250 mM H2O2, 50 μg/mL heated extract total protein): 2222 ppm
PAA (ppm), 1 min ([1]; NaHCO3 10 mM, initial pH 7.0, 1 min, 250 mM H2O2, 50 μg/mL heated extract total protein): 804 ppm
PAA (ppm), 5 min ([1]; NaHCO3 10 mM, initial pH 7.0, 5 min, 250 mM H2O2, 50 μg/mL heated extract total protein): 1951 ppm
PAA (ppm), 30 min ([1]; NaHCO3 10 mM, initial pH 7.0, 30 min, 250 mM H2O2, 50 μg/mL heated extract total protein): 2698 ppm
PAA (ppm), 1 min ([1]; NaHCO3 10 mM, initial pH 8.1, 1 min, 100 mM H2O2, 50 μg/mL heated extract total protein): 407 ppm
PAA (ppm), 5 min ([1]; NaHCO3 10 mM, initial pH 8.1, 5 min, 100 mM H2O2, 50 μg/mL heated extract total protein): 1075 ppm
PAA (ppm), 30 min ([1]; NaHCO3 10 mM, initial pH 8.1, 30 min, 100 mM H2O2, 50 μg/mL heated extract total protein): 1763 ppm
PAA (ppm), 1 min ([1]; NaHCO3 25 mM, initial pH 8.1, 1 min, 100 mM H2O2, 50 μg/mL heated extract total protein): 465 ppm
PAA (ppm), 1 min ([1]; NaHCO3 25 mM, initial pH 8.1, 1 min, 250 mM H2O2, 50 μg/mL heated extract total protein): 848 ppm
PAA (ppm), 5 min ([1]; NaHCO3 25 mM, initial pH 8.1, 5 min, 100 mM H2O2, 50 μg/mL heated extract total protein): 1369 ppm
PAA (ppm), 5 min ([1]; NaHCO3 25 mM, initial pH 8.1, 5 min, 250 mM H2O2, 50 μg/mL heated extract total protein): 2342 ppm
PAA (ppm), 30 min ([1]; NaHCO3 25 mM, initial pH 8.1, 30 min, 100 mM H2O2, 50 μg/mL heated extract total protein): 2217 ppm
PAA (ppm), 30 min ([1]; NaHCO3 25 mM, initial pH 8.1, 30 min, 250 mM H2O2, 50 μg/mL heated extract total protein): 3251 ppm
PAA (ppm), 1 min [2, 3]: 434 ppm
PAA (ppm), 5 min [2, 3]: 494 ppm
PAA (ppm), 30 min [2, 3]: 608 ppm
PAA (ppm), 2 h [2, 3]: 673 ppm
PAA (ppm), 18 h [2, 3]: 576 ppm
PAA (ppm), 1 min [2, 4]: 449 ppm
PAA (ppm), 5 min [2, 4]: 667 ppm
PAA (ppm), 30 min [2, 4]: 643 ppm
PAA (ppm), 2 h [2, 4]: 703 ppm
PAA (ppm), 18 h [2, 4]: 613 ppm
PAA (ppm), 1 min [2, 5]: 467 ppm
PAA (ppm), 5 min [2, 5]: 1047 ppm
PAA (ppm), 30 min [2, 5]: 1041 ppm
PAA (ppm), 2 h [2, 5]: 1014 ppm
PAA (ppm), 18 h [2, 5]: 917 ppm
PAA (ppm), 1 min [2, 6]: 624 ppm
PAA (ppm), 5 min [2, 6]: 1060 ppm
PAA (ppm), 30 min [2, 6]: 1090 ppm
PAA (ppm), 2 h [2, 6]: 1063 ppm
PAA (ppm), 18 h [2, 6]: 1021 ppm
PAA (ppm), 1 min [2, 7]: 256 ppm
PAA (ppm), 5 min [2, 7]: 722 ppm
PAA (ppm), 30 min [2, 7]: 976 ppm
PAA (ppm), 2 h [2, 7]: 887 ppm
PAA (ppm), 18 h [2, 7]: 855 ppm
PAA (ppm), 1 min [2, 8]: 410 ppm
PAA (ppm), 5 min [2, 8]: 1088 ppm
PAA (ppm), 30 min [2, 8]: 1496 ppm
PAA (ppm), 2 h [2, 8]: 1423 ppm
PAA (ppm), 18 h [2, 8]: 1419 ppm
PAA (ppm), 1 min [2, 9]: 409 ppm
PAA (ppm), 5 min [2, 9]: 892 ppm
PAA (ppm), 30 min [2, 9]: 2001 ppm
PAA (ppm), 2 h [2, 9]: 2254 ppm
PAA (ppm), 18 h [2, 9]: 1937 ppm
PAA (ppm), 1 min [2, 10]: 512 ppm
PAA (ppm), 5 min [2, 10]: 535 ppm
PAA (ppm), 30 min [2, 10]: 533 ppm
PAA (ppm), 2 h [2, 10]: 472 ppm
PAA (ppm), 18 h [2, 10]: 448 ppm
PAA (ppm), 1 min [2, 11]: 576 ppm
PAA (ppm), 5 min [2, 11]: 668 ppm
PAA (ppm), 30 min [2, 11]: 654 ppm
PAA (ppm), 2 h [2, 11]: 618 ppm
PAA (ppm), 18 h [2, 11]: 543 ppm
B1: Thermotoga maritima MSB8 perhydrolase: acetyl xylan esterase with perhydrolase activity from Thermotoga maritima MSB8 (SEQ ID NO: 16), cell extract of E. coli KLP18/pSW207 (protein, listed as Thermotoga maritima)
chain: MAFFDLPLEELKKYRPERYEEKDFDEFWEETLAESEKFPLDPVFERMESHLKTVEAYDVTFSGYRGQRIKGWLLVPKLEEEKLPCVVQYIGYNGGRGFPHDWLFWPSMGYICFVMDTRGQGSGWLKGDTPDYPEGPVDPQYPGFMTRGILDPRTYYYRRVFTDAVRAVEAAASFPQVDQERIVIAGGSQGGGIALAVSALSKKAKALLCDVPFLCHFRRAVQLVDTHPYAEITNFLKTHRDKEEIVFRTLSYFDGVNFAARAKIPALFSVGLMDNICPPSTVFAAYNYYAGPKEIRIYPYNNHEGGGSFQAVEQVKFLKKLFEKG
